± gives the standard deviation.
Assay: protein stability index of a GFP-peptide fusion (GPS, HEK-293T) (PSI 1-6); higher = more stable
[1] = treatment: DMSO, c terminus: a fixed tail appended
[2] = treatment: MLN4924 1 uM, 8 h, c terminus: a fixed tail appended
[3] = treatment: DMSO, c terminus: native
[4] = treatment: MLN4924 1 uM, 8 h, c terminus: native
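Also: 24-mer peptide tiles fused after GFP, lentivirally expressed, FACS-sorted into six equal bins by GFP/DsRed ratio, decoded by Illumina sequencing, PSI is the read-weighted mean bin number.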

| Sequence | protein stability index [1] | protein stability index [2] | protein stability index [3] | protein stability index [4] |
| --- | --- | --- | --- | --- |
| PLPESRREIEELLAEAKYYLVQGL [KCTD10] | 2.56 ± 0.2 | 2.77 ± 0.4 |  |  |
| PMMKAAMYSVEITVEKDKVTGETR [PALM] | 4.16 ± 0.33 | 4.29 ± 0.14 |  |  |
| PMVRKRSVSNSTQTSSSSSQSETS [DLC1] | 5.26 ± 0.21 | 5.3 ± 0.33 |  |  |
| PNLNETSIVSGGYGGSGDGLIPTG [ARFIP2] | 4.18 ± 0.13 | 4.45 ± 0.095 |  |  |
| PNRQLWIELAPLSMPRINHGVLSA [GAN] | 2.17 ± 0.47 | 2.19 ± 0.13 |  |  |
| PPETKHQALSGTPKKGPAPSLSPG [TSPAN10] | 5.31 ± 0.31 | 5.31 ± 0.13 |  |  |
| PPWKEAFRQRCLERMRNSRDRLLN [RPAIN] | 2.66 ± 0.18 | 2.75 ± 0.33 |  |  |
| PQARMREENMERIGEEVRQLMEKL [BEX1] | 4.51 ± 0.33 | 4.52 ± 0.23 |  |  |
| PQLASLCLDTIDKSTMDAISAEGF [BTBD1] | 3.98 ± 0.16 | 3.99 ± 0.057 |  |  |
| PSGEMVKSTTSLTSSSTSGSSDKV [MLH1] | 5.47 ± 0.39 | 5.59 ± 0.17 |  |  |
| PSMVSGGYVANSSNCISGVCSVRG [KRT71] | 3.35 ± 0.082 | 3.4 ± 0.23 |  |  |
| PSPASEQTVTVEEAAGGESALAPS [MAP2] | 5.45 ± 0.53 | 5.5 ± 0.15 |  |  |
| PSVADNLLASSDAALSASMASLLE [SERTAD1] | 4.51 ± 0.18 | 4.39 ± 0.15 |  |  |
| PTPMPHNKGTRFSEAWEYFHLAPA [ZBED2] | 2.65 ± 0.2 | 2.71 ± 0.33 |  |  |
| PTWIIDPIDGTTNFVHRFPFVAVS [IMPA1] | 2.36 ± 0.22 | 2.25 ± 0.25 |  |  |
| PVPVIVSNFNYFYHRETEGEEQAQ [KCNA1] | 3.62 ± 0.25 | 3.81 ± 0.4 |  |  |
| PVRDECEERNRFTETREEDVTDEH [FAM9B] | 5.44 ± 0.21 | 5.66 ± 0.24 |  |  |
| PVSDTPDEGDEPMPIPEDLSTTSG [IKZF1] | 5.75 ± 0.25 | 5.66 ± 0.3 |  |  |
| PWEPPVLPILTWPVLQSRTGLVYD [HDAC6] | 3.46 ± 0.51 | 3.35 ± 0.23 |  |  |
| QAAFTQQGMEGIKVFLHERELWLK [TBX5] | 2.86 ± 0.37 | 2.92 ± 0.4 |  |  |
| QAINNAINYLGAESLRPLVQTPPG [IKZF1] | 2.39 ± 0.29 | 2.25 ± 0.32 |  |  |
| QARKALFEKWEQETAAGKGKGEAR [SMTNL2] | 4.836 ± 0.03 | 4.84 ± 0.29 |  |  |
| QAYAHYLLATFPRRALAPPSAGFR [ANKRD9] | 2.31 ± 0.22 | 2.37 ± 0.23 |  |  |

| Sequence | protein stability index [1] | protein stability index [2] | protein stability index [3] | protein stability index [4] |
| --- | --- | --- | --- | --- |
| QCKEWQVLMCGFPFLLLFLGNFFT [TMEM120A] | 2.81 ± 0.053 | 2.92 ± 0.53 |  |  |
| QCRERREHPNLVRDHVETELLKEA [TEKT4] | 4.77 ± 0.19 | 4.97 ± 0.23 |  |  |
| QDGSPTTSRRPSGTGTGPEDGRPS [PDLIM4] | 5.37 ± 0.22 | 5.66 ± 0.16 |  |  |
| QEITSETEDLCEKPDDEVKETAHD [RIPK4] | 5.6 ± 0.17 | 5.69 ± 0.21 |  |  |
| QELASLLRTYLARLPWAGQLTKEL [PBXIP1] | 2.95 ± 0.59 | 2.72 ± 0.7 |  |  |
| QELEEEIKELYENFCKHNGSKNVF [ATL3] | 3.02 ± 0.32 | 3.57 ± 0.48 |  |  |
| QENAIQTMELRNYFSLYCLHQETQ [SNX8] | 2.58 ± 0.31 | 2.52 ± 0.4 |  |  |
| QGMIQLALSGASQPGPSGAPAQRA [RETREG3] | 4.26 ± 0.1 | 4.32 ± 0.22 |  |  |
| QGNGLFYSSGPQSWYPKANNQDFI [ZC2HC1C] | 2.6 ± 0.16 | 2.85 ± 0.051 |  |  |
| QGQPAMEGHCVIQVDVGDVNDNAP [PCDHGC5] | 4.97 ± 0.5 | 4.78 ± 0.075 |  |  |
| QHAALGGTATRQNNWPPLPSFCPV [SCAMP3] | 3.33 ± 0.28 | 3.39 ± 0.37 |  |  |
| QHEESTEGEADHSGYAGELGFRAF [UFD1] | 4.81 ± 0.31 | 4.88 ± 0.31 |  |  |
| QHYFYDYDCGEDFYRSTAPSEDIW [MYCL] | 2.63 ± 0.49 | 2.59 ± 0.33 |  |  |
| QILEGELFDFDLEVKPVLEVLVGK [RSPH3] | 2.13 ± 0.58 | 2.37 ± 0.67 |  |  |
| QIMFDVEMHTSRDHSSQSEEEVVE [BNIP3L] | 5.33 ± 0.063 | 5.37 ± 0.22 |  |  |
| QKELQDVGQSLRIKEQEVCKLQEQ [SASS6] | 4.88 ± 0.25 | 5.03 ± 0.36 |  |  |
| QKGIPPSLRGRAWQYLSGGKVKLQ [TBC1D10A] | 2.8 ± 0.13 | 3 ± 0.21 |  |  |
| QLFTEYGRLAMDEIFQKPFQTLMF [ATL3] | 2.33 ± 0.49 | 2.35 ± 0.47 |  |  |
| QLSATGQKLYVRLFQRKLSWIKMT [FAN1] | 2.3 ± 0.6 | 2.04 ± 0.17 |  |  |
| QLTCFSITCSSTMSYSCCLPSLGC [KRT34] | 3.04 ± 0.58 | 2.65 ± 0.35 |  |  |
| QLVRYSADGLLQLGPLGSTAFLPD [GALNT9] | 2.33 ± 0.27 | 2.67 ± 0.3 |  |  |
| QNARLAELERKLREVMESAVGNSS [FBXO28] | 3.68 ± 0.23 | 3.52 ± 0.34 |  |  |
| QPSFEPTKNKELTDEFRELRATVE [FADS1] | 4.98 ± 0.19 | 4.86 ± 0.35 |  |  |

| Sequence | protein stability index [1] | protein stability index [2] | protein stability index [3] | protein stability index [4] |
| --- | --- | --- | --- | --- |
| QQPPRLLIVHIALPSWADICTNLC [M1AP] | 3 ± 0.3 | 2.74 ± 0.51 |  |  |
| QQQCHEMAERLEDSVLKGMQAASS [SDE2] | 4.17 ± 0.33 | 4.2 ± 0.41 |  |  |
| QRSYFLRIFDIKDGKLLWEQELYN [WASL] | 2.21 ± 0.48 | 2.08 ± 0.4 |  |  |
| QRTVGQLMELCRLYHRADVEKVLR [EDARADD] | 2.38 ± 0.45 | 2 ± 0.22 |  |  |
| QVETSIEGTIPFSKPVKVYIMPKP [INTS4] | 2.65 ± 0.33 | 2.65 ± 0.42 |  |  |
| RAGLDLPTIDTGYDSQPQDVLGIR [TRAF3IP2] | 4.25 ± 0.37 | 4.29 ± 0.18 |  |  |
| RAIPELTKLLNDEDQVVVNKAAVM [CTNNB1] | 3.91 ± 0.16 | 3.89 ± 0.21 |  |  |
| RARGWAAAARAAQRRRRVENAGGS [RSAD1] | 4.48 ± 0.19 | 4.77 ± 0.17 |  |  |
| RAYRFVQGKDWGFKKFIRRDFLLD [SPOPL] | 2.48 ± 1.1 | 2.28 ± 0.29 |  |  |
| RCHRGYTLDPNGKTCSRVDHCAQQ [MATN2] | 3.68 ± 0.28 | 3.22 ± 0.34 |  |  |
| RCRPRSLIDYKSYMDTKLLVARFL [FAM189A2] | 2.42 ± 0.11 | 2.3 ± 0.3 |  |  |
| RDGRRDRYSSDTTPLLNGSSQDRM [GOSR1] | 4.76 ± 0.07 | 4.85 ± 0.2 |  |  |
| RDLALVSRDGMNIVLNKINQILME [INTS3] | 2.58 ± 0.28 | 2.69 ± 0.67 |  |  |
| RDPLQTDTLQNDYFAIKQEVVTPD [ETS1] | 4.89 ± 0.42 | 4.9 ± 0.47 |  |  |
| REKTNICYLSFPDSNSGCLGDTQF [DENND6A] | 2.88 ± 0.063 | 2.9 ± 0.25 |  |  |
| RETLIIAVLVSASIANLWLWMNQ [FATE1] |  |  | 2.54 ± 0.14 | 2.31 ± 0.21 |
| RFHRARWGLEEEDFQPREEAMLYH [P3H4] | 2.93 ± 0.11 | 2.9 ± 0.13 |  |  |
| RFTTSKLQSFEDLASISTYGFRGE [MLH1] | 3.24 ± 0.47 | 3.12 ± 0.36 |  |  |
| RGGGGGGGGGAPRGRYGPPSRRSE [SRSF1] | 5.61 ± 0.1 | 5.49 ± 0.071 |  |  |
| RGIDSSSVKLRGSSLFMDTEKSGK [WEE1] | 4.91 ± 0.57 | 4.99 ± 0.25 |  |  |
| RGLRGPNLTSPASITFTTGLEAPR [TNXB] | 3.84 ± 0.2 | 3.92 ± 0.47 |  |  |
| RGRHEQSPTSRPRKVSSLPPRSC [C22orf15] |  |  | 3.06 ± 0.81 | 3.5 ± 0.85 |
| RGVPLLEWETEVEMDKLRASDIME [CLCN6] | 4.2 ± 0.043 | 4.3 ± 0.13 |  |  |

| Sequence | protein stability index [1] | protein stability index [2] | protein stability index [3] | protein stability index [4] |
| --- | --- | --- | --- | --- |
| RHEVIMDRHGVYGLQRNLLVENII [TRIM63] | 2.42 ± 0.13 | 2.31 ± 0.22 |  |  |
| RHGGLSLVQTTDFFYPLVEDPYMM [SEPHS2] | 2.3 ± 0.25 | 2.24 ± 0.28 |  |  |
| RHKQPTLLMVRASRRSGKTSAVLK [C6orf223] | 3.29 ± 0.26 | 3.45 ± 0.24 |  |  |
| RISHTLYDLDKIIELNGGQPPLTY [CRY1] | 2.38 ± 0.041 | 2.6 ± 0.27 |  |  |
| RITAAEALKHPWISHRSTVASCMH [CAMK2A] | 2.54 ± 0.19 | 2.89 ± 0.19 |  |  |
| RKGCLRFQLPERGSRLCLYEDGTE [DFFB] | 3.34 ± 0.39 | 3.47 ± 0.21 |  |  |
| RKLFGQESGPSAEKYSVATQLFIG [FUNDC2] | 2.61 ± 0.18 | 2.47 ± 0.26 |  |  |
| RKLRELQLRNCLRILMGELSNHHD [BEX3] | 2.38 ± 0.21 | 2.28 ± 0.19 |  |  |
| RKSLLVVHQRTHTGEKPHTCSECG [ZNF649] | 3.98 ± 0.21 | 3.95 ± 0.42 |  |  |
| RLDGCIYAIKRSKKPLAGSVDEQN [WEE1] | 3.54 ± 0.28 | 3.73 ± 0.22 |  |  |
| RLLRFSSQIHNNGQSDFRPKNGRH [LOXL2] | 3.2 ± 0.41 | 3.42 ± 0.81 |  |  |
| RLNGTAKGERRREPGGYDSSSTLM [DVL3] | 3.62 ± 0.13 | 4.01 ± 0.31 |  |  |
| RLPFLSSSNLSLDVLRGNDETIGF [POMP] | 3.02 ± 0.42 | 3 ± 0.27 |  |  |
| RLQELCHGWLRPEMRTKEQILELL [ZNF263] | 2.58 ± 0.11 | 2.9 ± 0.12 |  |  |
| RLVHTTAIEHFQPNADLLFSDPSQ [FCHO1] | 3.78 ± 0.15 | 3.87 ± 0.24 |  |  |
| RMLKDNKKNWRRVYKSLLLLAYLI [CLINT1] | 2.45 ± 0.38 | 2.63 ± 0.23 |  |  |
| RNGSERVVTSAREHIYDLRSLENY [CLINT1] | 3.5 ± 0.16 | 3.81 ± 0.25 |  |  |
| RNPGPGRHRLITQVYLSHTAWTEA [INTS4] | 2 ± 0.23 | 2.29 ± 0.35 |  |  |
| RNQVVSSTNGELNVDDPTGAHSNA [CSNK1G1] | 5.25 ± 0.12 | 5.22 ± 0.18 |  |  |
| RQKVLSLPLPDPLKYYLLYYREK [PCMTD2] |  |  | 2.14 ± 0.18 | 2.46 ± 0.19 |

From the supplement of paper PMC10567573
